Experiment [1] has as its target T1, human PD-1^ECD-hFc protein (Immunogen A) (human, UniProt Q15116 25-167).
T1 construct: Biotinylated for the Octet assay; also called PD-1-hFc; hPD-1^ECD-hFc; not shown: human IgG Fc fragment (hFc)
The experiment in a line: ELISA, coated human PD-1ECD-hFc; antibody 1 nM. The protocol:
(§1) 100 uL of the diluted recombinant proteins were added to each well of 96-well plate. The plates were sealed with plastic film and incubated at 4° C. overnight. The plates were washed twice with wash buffer (PBS+0.01% (v/v) Tween20), and incubated with blocking buffer (PBS+0.01% (v/v) Tween20+1% (w/w) BSA) at room temperature for 2 hours. The blocking buffer was aspirated away, and 100 uL of purified anti-PD-1 antibodies were added to each well and incubated for 2 hours at 37° C. The plates were washed three times with wash buffer (PBS+0.01% (v/v) Tween20). HRP-conjugated secondary antibody (Sigma) was added to each well and incubated for 2 hours at 37° C. After the plates were washed three times with wash buffer, 100 uL TMB substrate was added to each well and incubated for 30 minutes at room temperature. 100 uL stop solution (0.1N HCl) was added to each well to stop the reaction. The absorbance at 450 nm was measured with an ELISA plate reader (384plus SpectraMax, Molecular Devices).
For orientation: ELISA stands for enzyme-linked immunosorbent assay.

In experiment [2] the target is T1, human PD-1^ECD-hFc protein (Immunogen A). The experiment in a line: ELISA, coated human PD-1ECD-hFc; antibody 10 nM. The procedure:
as §1

Experiment [3] shares this target. Put plainly: ELISA, coated human PD-1ECD-hFc; antibody 0.1 nM. The protocol:
as §1

For experiment [4] the target is unchanged. The experiment in a line: ELISA, coated human PD-1ECD-hFc; antibody 100 nM. The protocol:
as §1

Experiment [5] shares this target. Put plainly: ELISA, coated human PD-1ECD-hFc; antibody 0.01 nM. The procedure: as §1
For experiment [6], the target named is T2, full length human PD-1 on cells (human, UniProt Q15116 25-288).
T2 construct: Also used here for PD-1 on human T cells/PBMC; also called CHO-K1-hPD-1; hPD-1
The experiment in a line: flow cytometry, CHO-K1-hPD-1 cells; antibody 1 nM. The source says:
(§2) CHO-K1 cells were stably transfected with pIRES plasmid containing the nucleic acid sequence encoding full length human PD-1 (see Example 2, step 2) to generate CHO-K1 cells stably expressing human PD-1 (herein referred to as CHO-K1-hPD-1 cells). Other CHO-K1 were stably transfected with pIRES plasmid containing the nucleic acid sequence encoding full length cyno PD-1 to generate CHO-K1 cells stably expressing cyno PD-1 (herein referred to as CHO-K1-cPD-1 cells). CHO-K1-hPD-1 and CHO-K1-cPD-1 cells were cultured and expanded in T-75 culture flasks to 90% confluence. The culture media was aspirated, and the cells were washed twice with HBSS (Hanks Balanced Salt Solution, Invitrogen). The cells were treated with enzyme-free cell dissociation solution (Versene solution, Invitrogen) and collected. The cells were then washed twice with HBSS, cell counts were determined, and cells were resuspended with HBSS at 2×10⁶ cells/mL. Goat serum was added to the cell suspension to a final concentration of 1%, and the cells were blocked for 30 minutes on ice and then washed twice with HBSS. The cells were collected after centrifugation and resuspended in FACS buffer (HBSS+1% BSA, v/v) at 2×10⁶ cells/mL. 100 uL of the cell suspension were then added to each well of 96-well plate. 100 uL of purified anti-PD-1 antibodies from Example 2 were added to each well of the 96-well plate and incubated for 2 hours on ice. […] The samples were washed three times with FACS buffer, and 100 uL fixation buffer (4% paraformaldehyde v/v) were added to each well and incubated for 10 minutes. The cells were then washed twice with FACS buffer and resuspended in 100 uL FACS buffer. The mean fluorescence intensity (MFI) was determined using FACS Calibur (BD), and the results are shown in FIGS. 7-8 and in Tables 10-11.
A general note: In flow cytometry, cells or beads pass a laser one at a time.

The target of experiment [7] is T1, human PD-1^ECD-hFc protein (Immunogen A). The experiment in a line: ELISA, coated human PD-1ECD-hFc; antibody 0.001 nM. The protocol:
as §1

The target of experiment [8] is T2, full length human PD-1 on cells. Put plainly: flow cytometry, CHO-K1-hPD-1 cells; antibody 10 nM.
Text: as §2

For experiment [9], the target named is T1, human PD-1^ECD-hFc protein (Immunogen A). Put plainly: ELISA, coated human PD-1ECD-hFc; antibody 0.0001 nM. The protocol:
as §1

Experiment [10] addresses T2, full length human PD-1 on cells. The experiment in a line: flow cytometry, CHO-K1-hPD-1 cells; antibody 0.1 nM.
Text: as §2

For experiment [11] the target is unchanged. Put plainly: flow cytometry, CHO-K1-hPD-1 cells; antibody 100 nM.
Text: as §2

Experiment [12] addresses T1, human PD-1^ECD-hFc protein (Immunogen A). The experiment in a line: ELISA, coated human PD-1ECD-hFc; antibody 0.00001 nM. The protocol: as §1
For experiment [13], the target named is T2, full length human PD-1 on cells. The experiment in a line: flow cytometry, CHO-K1-hPD-1 cells; antibody 3.16 nM.
Text: as §2

The target is the same in experiment [14]. The experiment in a line: flow cytometry, CHO-K1-hPD-1 cells; antibody 31.6 nM.
Text: as §2

The target is the same in experiment [15]. Put plainly: flow cytometry, CHO-K1-hPD-1 cells; antibody 0.316 nM.
Text: as §2

Experiment [16] shares this target. Put plainly: flow cytometry, CHO-K1-hPD-1 cells; antibody 0.0316 nM.
Text: as §2

For experiment [17], the target named is T3, CD28 (human, UniProt P10747 19-152). The experiment in a line: ELISA on coated protein (Table 9). The procedure: as §1
In experiment [18] the target is T4, B7-1 (human, UniProt P33681 35-242).
T4 sequence (looked up): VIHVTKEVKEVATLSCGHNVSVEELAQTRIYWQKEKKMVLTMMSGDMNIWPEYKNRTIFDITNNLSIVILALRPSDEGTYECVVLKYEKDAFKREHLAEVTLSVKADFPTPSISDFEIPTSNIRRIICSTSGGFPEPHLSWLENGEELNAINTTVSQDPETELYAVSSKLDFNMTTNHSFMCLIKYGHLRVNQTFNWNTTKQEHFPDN
The experiment in a line: ELISA on coated protein (Table 9). The protocol:
as §1

The target in experiment [19] is T5, ICOS (human, UniProt Q9Y6W8 21-140, limits assumed).
T5 sequence (looked up): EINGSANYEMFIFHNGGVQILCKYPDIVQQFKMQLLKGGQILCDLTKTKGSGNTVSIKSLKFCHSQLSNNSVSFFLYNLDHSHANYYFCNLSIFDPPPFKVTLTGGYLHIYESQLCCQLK
Put plainly: ELISA on coated protein (Table 9). The protocol:
as §1

The target of experiment [20] is T6, CTLA4 (human, UniProt P16410 37-162, limits assumed).
T6 sequence (looked up): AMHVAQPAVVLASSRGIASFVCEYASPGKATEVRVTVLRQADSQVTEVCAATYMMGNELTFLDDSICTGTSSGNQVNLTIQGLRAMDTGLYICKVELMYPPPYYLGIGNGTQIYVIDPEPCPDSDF
Put plainly: ELISA on coated protein (Table 9). The protocol:
as §1

Experiment [21] deals with T7, cyno PD-1^ECD-hFc protein (cyno monkey, UniProt B0LAJ3 25-167).
T7 construct: Prepared by the method for Immunogen A; also called Cyno Monkey PD-1^ECD-hFc; cyno monkey PD-1-hFc; not shown: human IgG Fc fragment (hFc) and its junction to the ECD
The experiment in a line: ELISA, coated cyno PD-1ECD-hFc; antibody 1 nM. The protocol: as §1

Experiment [22] has as its target T7, cyno PD-1^ECD-hFc protein. The experiment in a line: ELISA, coated cyno PD-1ECD-hFc; antibody 10 nM. The protocol: as §1
Experiment [23] deals with T7, cyno PD-1^ECD-hFc protein. Put plainly: ELISA, coated cyno PD-1ECD-hFc; antibody 0.1 nM. The procedure: as §1
Experiment [24] has as its target T7, cyno PD-1^ECD-hFc protein. Put plainly: ELISA, coated cyno PD-1ECD-hFc; antibody 100 nM. The procedure:
as §1

Experiment [25] has as its target T7, cyno PD-1^ECD-hFc protein. Put plainly: ELISA, coated cyno PD-1ECD-hFc; antibody 0.01 nM. The procedure:
as §1

Experiment [26] has as its target T3, CD28. Put plainly: ELISA, coated protein 1 ug/mL; antibody concentration not stated. The procedure:
as §1

Experiment [27] deals with T5, ICOS. Described as above. The procedure: as §1
Experiment [28] deals with T6, CTLA4. The experiment is described as above. The procedure:
as §1

The values that follow come from patent publication US20180214548A1 (SHANGHAI YUNYI HEALTHCARE AND TECHNOLOGY, published 2018).

T2 sequence (Q15116 25-288 limits assumed): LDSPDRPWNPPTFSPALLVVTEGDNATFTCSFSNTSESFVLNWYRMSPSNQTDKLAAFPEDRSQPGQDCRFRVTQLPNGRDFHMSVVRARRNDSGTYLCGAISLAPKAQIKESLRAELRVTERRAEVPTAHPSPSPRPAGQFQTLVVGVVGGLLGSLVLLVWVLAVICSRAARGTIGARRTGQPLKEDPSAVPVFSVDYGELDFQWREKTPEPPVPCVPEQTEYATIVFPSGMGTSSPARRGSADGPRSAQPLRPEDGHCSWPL
T1 sequence (Q15116 25-167): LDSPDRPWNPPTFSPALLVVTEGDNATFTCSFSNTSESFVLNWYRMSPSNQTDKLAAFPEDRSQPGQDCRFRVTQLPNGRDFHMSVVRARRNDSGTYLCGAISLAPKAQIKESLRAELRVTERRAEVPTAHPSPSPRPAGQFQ
T7 sequence (B0LAJ3 entry or part of it limits assumed): as the sequence (Q15116 25-167) above, with D2E, P10A, V19L, T35A, Q75R counted along it
T3 sequence (P10747 19-152 limits assumed): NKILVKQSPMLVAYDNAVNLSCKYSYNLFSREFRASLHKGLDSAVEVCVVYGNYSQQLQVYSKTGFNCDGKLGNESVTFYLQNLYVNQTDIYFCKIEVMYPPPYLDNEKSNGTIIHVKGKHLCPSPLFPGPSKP

B1: chimeric anti-PD-1 antibody 226C3A7 (antibody, V domains shown)
VH: QVQLQQSGPGLVNPSQTLSLTCAISGDSVSSNSGAWNWIRQSPSRGLEWLGRTYYRSKWYNDYGISVQSRITINPDTSKNHFSLQLNSVTPEDTAVYYCARDPYYYGSGSYFDYWGQGTLVTVSS
VL: EIVMTQSPATLSVSPGERVTLSCRASLSVNSNLAWYQQKPGQAPRLLIYDTSTRATGVPARFSGSGSGTEFTLTISSLQSEDFAVYYCQQYHYWPLTFGGGTKVEIK
notes: Purified from hybridoma of Harbour H2L2 mice: human variable regions, rat constant regions
As to B1, the OD450 nm is 2.86 in [1]; 2.86 in [2]; 2.54 in experiment [3]; 2.83 in experiment [4]; 0.9 in experiment [5]; 0.45 in experiment [7]. The OD450 nm turned out to be 0.4 in experiment [9] and 0.39 in [12]. Moreover, the Mean fluorescence intensity came out at 5.2 in experiment [6]; 203 in experiment [8]; 3.2 in experiment [10]; 825 in experiment [11]; 22.9 in experiment [13]; 826 in [14]. Also, the figures for the Mean fluorescence intensity in [15] and in experiment [16] were 3.4 and 4.1, respectively.

B2: chimeric anti-PD-1 antibody 223G6B5 (antibody, V domains shown)
VH: QVQLQESGPGLVKPSETLSLTCAVSGHSIRGSYFWGWIRQPPGRGLEWIGSIYHSGSTYTNPSLKSRATISVDTSKNQFSLKLNSVTAADTAVYYCARDLDIATTRDYWGQGTLVTVSS
VL: DIQLTQSPSFLSASVGDRVTIICRASQGINNYLAWYQQKPGKAPKLLIYAASTLQSGVPSRFSGSGSGTEFTLTISSLQPEDFATYYCQQLDSYPRTFGQGTKVEIKR
notes: as for B1
B2: the binding result in [17], in experiment [18], in experiment [19] and in experiment [20] was “no binding” throughout. In addition, the OD450 nm turned out to be 2.61 in experiment [21]; 2.74 in experiment [22]; 1.28 in [23]; 2.7 in experiment [24]; 0.342 in experiment [25]; 0.166 in [26]. Also, the values for the OD450 nm in experiment [27] and in [28] were 0.14 and 0.106, respectively.

B3: chimeric anti-PD-1 antibody 204C5E12 (antibody, V domains shown)
VH: QVQLVESGGGVVQPGRSLRLSCAASGFSFSYYGMHWVRQAPGKGLEWVAVIWYDGSNKYYADSVKGRFTISRDNSKNTLYLQMNSLRAEDTAVYYCASGITLVRGADYYYNYDMDVWGQGTTVTVSS
VL: not shown
notes: as for B1
Turning to B3, the OD450 nm is 2.87 in experiment [1]; 2.84 in experiment [2]; 2.13 in [3]; 2.77 in [4]; 0.68 in [5]; 0.48 in [7]. The OD450 nm in experiment [9] and in [12] was 0.43 each time. Further, the Mean fluorescence intensity in experiment [6] is 5; in [8], 160; in [10], 2.9; in [11], 1490; in experiment [13], 21.4; in experiment [14] it was 986. The Mean fluorescence intensity in experiment [15] and in [16] was 3 in each case.
